Measurements: article PMC3617563 (Biochemistry, 2012)
Like-named read-outs stand apart in the source and are kept apart here.

What was measured:
[1] = target: T1, native ubiquitin (monoubiquitin) (UniProt P0CG48 1-76); test: stopped-flow fluorescence
[2] = target: T2, Ub-AMC (ubiquitin-7-amino-4-methylcoumarin) (human, UniProt P0CG48 1-75, 7-amino-4-methylcoumarin (AMC) on the C-terminal glycine); test: stopped-flow fluorescence
[3] = target: T2, Ub-AMC …; test: stopped-flow fluorescence; remark: listed apart in the source
[4] = target: T1, native ubiquitin (monoubiquitin); test: stopped-flow fluorescence; remark: listed apart in the source
[5] = target: T2, Ub-AMC …; test: other fluorescence titration

koff [1] [s⁻¹]	kon [1] [M⁻¹ s⁻¹]	Kd [2] [µM]	koff [3] [s⁻¹]	kon [3] [M⁻¹ s⁻¹]	koff [4] [s⁻¹]	kon [4] [M⁻¹ s⁻¹]	Kd [5] [µM]	Binder
2.64 ± 0.56	400000 ± 10000							wild-type USP2 catalytic core (human ubiquitin-specific protease 2, amino acids 259 to 605) (domain or fragment, UniProt O75604 259-605, looked up) NSKSAQGLAGLRNLGNTCFMNSILQCLSNTRELRDYCLQRLYMRDLHHGSNAHTALVEEFAKLIQTIWTSSPNDVVSPSEFKTQIQRYAPRFVGYNQQDAQEFLRFLLDGLHNEVNRVTLRPKSNPENLDHLPDDEKGRQMWRKYLEREDSRIGDLFVGQLKSSLTCTDCGYCSTVFDPFWDLSLPIAKRGYPEVTLMDCMRLFTKEDVLDGDEKPTCCRCRGRKRCIKKFSIQRFPKILVLHLKRFSESRIRTSKLTTFVNFPLRDLDLREFASENTNHAVYNLYAVSNHSGTTMGGHYTAYCRSPGTGEWHTFNDSSVTPMSSSQVRTSDAYLLFYELASPPSRM
		5.5	1.82 ± 0.17	330000 ± 20000	7.54 ± 2.6	480000 ± 50000	2.9 ± 0.6	C276A USP2 catalytic core (inactive active-site mutant) (domain or fragment, human, UniProt O75604 259-605, looked up) NSKSAQGLAGLRNLGNTAFMNSILQCLSNTRELRDYCLQRLYMRDLHHGSNAHTALVEEFAKLIQTIWTSSPNDVVSPSEFKTQIQRYAPRFVGYNQQDAQEFLRFLLDGLHNEVNRVTLRPKSNPENLDHLPDDEKGRQMWRKYLEREDSRIGDLFVGQLKSSLTCTDCGYCSTVFDPFWDLSLPIAKRGYPEVTLMDCMRLFTKEDVLDGDEKPTCCRCRGRKRCIKKFSIQRFPKILVLHLKRFSESRIRTSKLTTFVNFPLRDLDLREFASENTNHAVYNLYAVSNHSGTTMGGHYTAYCRSPGTGEWHTFNDSSVTPMSSSQVRTSDAYLLFYELASPPSRM
